Format in all cases: binding
One assay deals with T1, Gβ1γ2 Lys57Ala (Rattus norvegicus, UniProt P54311, K57A).
T1 construct: made in house; host or cells: Sf9 insect cells (baculovirus)
The experiment in a line: Phage ELISA, b-βγ mutant Lys57Ala. The settings on record: alanine-substituted Lys57, C-Terminal Interface; mean ± SD. From the text: (§1) Wild-type Gβ1 and Gβ1 mutants were made in the baculovirus vector PDW464 which encodes a biotinylation site at a lysine upstream of the amino terminus of Gβ1 (Goubaeva, et al. (2003) supra). Mutants were generated by overlap extension PCR using standard protocols. The wild-type and mutant Gβ1 constructs consisted of a 20 amino acid biotin acceptor peptide (BAP) sequence fused in-frame with the amino-terminus of rat Gβ1 subunit. When coexpressed with biotin holoenzyme synthetase (BirA) in Sf9 cells, the Gβ1 subunit becomes covalently biotinylated in vivo at the Specific lysine acceptor residue in the BAP. Using this approach, 1-2 mg protein of purified protein can be obtained per liter of Sf9 insect cells. As 45 ng of protein is used in the phage ELISA assay, a single purification is sufficient for 10,000 to 30,000 binding assays.
(§2) Phage ELISA assays used to assess peptide binding to wild-type and mutant b-βγ were performed according to standard methods (Smrcka and Scott (2002) Methods Enzymol. 344:557-76). Briefly, 1 μg streptavidin was immobilized in the well of a […] overnight at 4° C. The wells were blocked with 100 μL of 2% bovine serum albumin (BSA) in Tris-buffered saline (TBS) for 1 hour at 4° C. followed by three washes of 1×TBS/0.5% TWEEN®. Forty μL of 25 nM bGβ1γ2 in TBS/0.5% TWEEN® was added to each well and incubated at 4° C. for 1.5 hour. The wells were washed, followed by the addition of 1×10^6 to 1×10^10 phage particles and incubated at 4° C. for 3 hours. The wells were then washed six times with TBS/0.5% TWEEN® followed by addition of 40 μL of 1:5000 dilution of anti-M13 antibody (Pharmacia, Uppsala, Sweden) and incubated at room temperature for 1 hour. The wells were washed, followed by the addition of 40 μL of (2,2′-Azino-bis(3-ethylbenzthiazoline)-6-sulfonic acid (ABTS) and the colorimetric reaction was monitored at 405 nm. Non-specific binding was subtracted for each reading.
(§3) Both assays were then carried out with Gβ1γ2 heterodimers containing mutations in the Gβ1 subunit.
(§4) The nine peptides were selected to represent the different consensus groups of peptides previously identified (See Scott et al. (2001) supra; Table 9) and to compare binding characteristics within and between consensus groups. […] As disclosed herein, the binding signal obtained in the ELISA assay was correlated to a loss in affinity by comparing the results to behavior of the peptide in a solution based assay. […] For the purposes of present disclosure, any substitution that decreased the binding to less than 20% of the wild-type binding was considered to be a critical binding contact for that peptide.

A further assay addresses T2, Gβ1γ2 Tyr59Ala (Rattus norvegicus, UniProt P54311, Y59A).
T2 construct: made in house; host or cells: Sf9 insect cells (baculovirus)
The experiment in a line: Phage ELISA, b-βγ mutant Tyr59Ala. Particulars: alanine-substituted Tyr59, C-Terminal Interface; mean ± SD.
From the text: as §1, with “BAP.” for “BAP. Using this approach, 1-2 mg protein of purified protein can be obtained per liter of Sf9 insect cells. As 45 ng of protein is used in the phage ELISA assay, a single purification is sufficient for 10,000 to 30,000 binding assays.”
as §2, with “Forty μL of 25 nM bGβ1γ2 in TBS/0.5% TWEEN® was added to each well and incubated at 4° C. for 1.5 hour.” left out
as §3
The nine peptides were selected to represent the different consensus groups of peptides previously identified (See Scott et al. (2001) supra; Table 9) and to compare binding characteristics within and between consensus groups. […] For the purposes of present disclosure, any substitution that decreased the binding to less than 20% of the wild-type binding was considered to be a critical binding contact for that peptide.
On the technique in general: ELISA stands for enzyme-linked immunosorbent assay.

The target in another assay is T3, Gβ1γ2 Trp99Ala (Rattus norvegicus, UniProt P54311, W99A).
T3 construct: made in house; host or cells: Sf9 insect cells (baculovirus)
Nature of the assay: Phage ELISA, b-βγ mutant Trp99Ala. The settings on record: alanine-substituted Trp99, C-Terminal Interface; mean ± SD.
From the text: as §1, §2, §3, §4

Another assay has as its target T4, Gβ1γ2 Met101Ala (Rattus norvegicus, UniProt P54311, M101A).
T4 construct: made in house; host or cells: Sf9 insect cells (baculovirus)
The experiment in a line: Phage ELISA, b-βγ mutant Met101Ala. The settings on record: alanine-substituted Met101, C-Terminal Interface; mean ± SD.
From the text: as §1, §2, §3, §4

In a further assay the target is T5, Gβ1γ2 Leu117Ala (Rattus norvegicus, UniProt P54311, L117A).
T5 construct: made in house; host or cells: Sf9 insect cells (baculovirus)
The experiment in a line: Phage ELISA, b-βγ mutant Leu117Ala. The settings on record: alanine-substituted Leu117, C-Terminal Interface; mean ± SD.
From the text: as §1, §2, §3, §4

In the next assay the target is T6, Gβ1γ2 Tyr145Ala (Rattus norvegicus, UniProt P54311, Y145A).
T6 construct: made in house; host or cells: Sf9 insect cells (baculovirus)
The experiment in a line: Phage ELISA, b-βγ mutant Tyr145Ala. The settings on record: alanine-substituted Tyr145, N-Terminal Interface; mean ± SD.
From the text: as §1, §2, §3, §4

The target in a further assay is T7, Gβ1γ2 Asp186Ala (Rattus norvegicus, UniProt P54311, D186A).
T7 construct: made in house; host or cells: Sf9 insect cells (baculovirus)
Nature of the assay: Phage ELISA, b-βγ mutant Asp186Ala. The settings on record: alanine-substituted Asp186, N-Terminal Interface; mean ± SD.
From the text: as §1, §2, §3, §4

The next assay deals with T8, Gβ1γ2 Met188Ala (Rattus norvegicus, UniProt P54311, M188A).
T8 construct: made in house; host or cells: Sf9 insect cells (baculovirus)
The experiment in a line: Phage ELISA, b-βγ mutant Met188Ala. The settings on record: alanine-substituted Met188, Shared; mean ± SD.
From the text: as §1, §2, §3, §4

Another assay addresses T9, Gβ1γ2 Asn230Ala (Rattus norvegicus, UniProt P54311, N230A).
T9 construct: made in house; host or cells: Sf9 insect cells (baculovirus)
Nature of the assay: Phage ELISA, b-βγ mutant Asn230Ala. The settings on record: alanine-substituted Asn230, N-Terminal Interface; mean ± SD.
From the text: as §1, §2, §3, §4

The target of a further assay is T10, Gβ1γ2 Asp246Ser (Rattus norvegicus, UniProt P54311, D246S).
T10 construct: made in house; host or cells: Sf9 insect cells (baculovirus)
Nature of the assay: Phage ELISA, b-βγ mutant Asp246Ser. Particulars: Asp246 mutant (Asp246Ser), N-Terminal Interface; mean ± SD.
From the text: as §1, §2, §3, §4

Another assay concerns the target T11, Gβ1γ2 His311Ala (Rattus norvegicus, UniProt P54311, H311A).
T11 construct: made in house; host or cells: Sf9 insect cells (baculovirus)
The experiment in a line: Phage ELISA, b-βγ mutant His311Ala. Particulars: alanine-substituted His311, Indirect; mean ± SD.
From the text: as §1, §2, §3, §4

Another assay deals with T12, Gβ1γ2 Arg314Ala (Rattus norvegicus, UniProt P54311, R314A).
T12 construct: made in house; host or cells: Sf9 insect cells (baculovirus)
The experiment in a line: Phage ELISA, b-βγ mutant Arg314Ala. Particulars: alanine-substituted Arg314, Indirect; mean ± SD.
From the text: as §1, §2, §3, §4

A further assay deals with T13, Gβ1γ2 Trp332Ala (Rattus norvegicus, UniProt P54311, W332A).
T13 construct: made in house; host or cells: Sf9 insect cells (baculovirus)
Nature of the assay: Phage ELISA, b-βγ mutant Trp332Ala. The settings on record: alanine-substituted Trp332, C-Terminal Interface; mean ± SD.
From the text: as §1, §2, §3, §4

T12 sequence (P54311 whole entry R314A): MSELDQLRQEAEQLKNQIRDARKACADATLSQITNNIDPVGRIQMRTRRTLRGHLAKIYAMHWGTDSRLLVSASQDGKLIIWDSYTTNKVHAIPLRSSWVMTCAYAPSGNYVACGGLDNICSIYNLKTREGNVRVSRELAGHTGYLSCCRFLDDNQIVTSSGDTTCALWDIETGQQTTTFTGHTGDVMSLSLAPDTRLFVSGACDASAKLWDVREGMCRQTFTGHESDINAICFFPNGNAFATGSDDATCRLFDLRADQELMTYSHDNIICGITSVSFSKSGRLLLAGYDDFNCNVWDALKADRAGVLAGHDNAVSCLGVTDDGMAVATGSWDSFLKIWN
T12 sequence (P63212 2-68 partner limits assumed): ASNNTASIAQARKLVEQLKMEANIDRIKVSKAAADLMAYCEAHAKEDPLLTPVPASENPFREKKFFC
T10 sequence (P54311 whole entry D246S): as the sequence (P54311 whole entry R314A) above, with D246S, A314R counted along it
T10 sequence (P63212 2-68 partner limits assumed): as the sequence (P63212 2-68 partner limits assumed) above
T7 sequence (P54311 whole entry D186A): as the sequence (P54311 whole entry R314A) above, with D186A, A314R counted along it
T7 sequence (P63212 2-68 partner limits assumed): as the sequence (P63212 2-68 partner limits assumed) above
T11 sequence (P54311 whole entry H311A): as the sequence (P54311 whole entry R314A) above, with H311A, A314R counted along it
T11 sequence (P63212 2-68 partner limits assumed): as the sequence (P63212 2-68 partner limits assumed) above
T3 sequence (P54311 whole entry W99A): as the sequence (P54311 whole entry R314A) above, with W99A, A314R counted along it
T3 sequence (P63212 2-68 partner limits assumed): as the sequence (P63212 2-68 partner limits assumed) above
T6 sequence (P54311 whole entry Y145A): as the sequence (P54311 whole entry R314A) above, with Y145A, A314R counted along it
T6 sequence (P63212 2-68 partner limits assumed): as the sequence (P63212 2-68 partner limits assumed) above
T1 sequence (P54311 whole entry K57A): as the sequence (P54311 whole entry R314A) above, with K57A, A314R counted along it
T1 sequence (P63212 2-68 partner limits assumed): as the sequence (P63212 2-68 partner limits assumed) above
T9 sequence (P54311 whole entry N230A): as the sequence (P54311 whole entry R314A) above, with N230A, A314R counted along it
T9 sequence (P63212 2-68 partner limits assumed): as the sequence (P63212 2-68 partner limits assumed) above
T13 sequence (P54311 whole entry W332A): as the sequence (P54311 whole entry R314A) above, with A314R, W332A counted along it
T13 sequence (P63212 2-68 partner limits assumed): as the sequence (P63212 2-68 partner limits assumed) above
T4 sequence (P54311 whole entry M101A): as the sequence (P54311 whole entry R314A) above, with M101A, A314R counted along it
T4 sequence (P63212 2-68 partner limits assumed): as the sequence (P63212 2-68 partner limits assumed) above
T5 sequence (P54311 whole entry L117A): as the sequence (P54311 whole entry R314A) above, with L117A, A314R counted along it
T5 sequence (P63212 2-68 partner limits assumed): as the sequence (P63212 2-68 partner limits assumed) above
T2 sequence (P54311 whole entry Y59A): as the sequence (P54311 whole entry R314A) above, with Y59A, A314R counted along it
T2 sequence (P63212 2-68 partner limits assumed): as the sequence (P63212 2-68 partner limits assumed) above
T8 sequence (P54311 whole entry M188A): as the sequence (P54311 whole entry R314A) above, with M188A, A314R counted along it
T8 sequence (P63212 2-68 partner limits assumed): as the sequence (P63212 2-68 partner limits assumed) above

In the case of WCPPKAMTQLGIKAC [C14], the “% of Wild-Type Signal, Lys57” value with Gβ1γ2 Lys57Ala was 3.0 ± 5.0%. In the assay with Gβ1γ2 Tyr59Ala, the “% of Wild-Type Signal, Tyr59” value stood at 3.6 ± 2.0%. Besides, the “% of Wild-Type Signal, Trp99” value in the assay with Gβ1γ2 Trp99Ala was determined as 10.1 ± 3.3%. In the assay with Gβ1γ2 Met101Ala, the “% of Wild-Type Signal, Met101” value was found to be 1.1 ± 4.9%. For the same sequence, in the assay with Gβ1γ2 Leu117Ala, the “% of Wild-Type Signal, Leu117” value is on record as 3.8 ± 9.2%. Besides, the “% of Wild-Type Signal, Tyr145” value with Gβ1γ2 Tyr145Ala is on record as 1.9 ± 5.9%. Also, the “% of Wild-Type Signal, Asp186” value in the assay with Gβ1γ2 Asp186Ala is on record as 3.6 ± 1.9%. Moreover, the “% of Wild-Type Signal, Met188” value with Gβ1γ2 Met188Ala turned out to be 9.9 ± 3.8%. Further, in the assay with Gβ1γ2 Asn230Ala, the “% of Wild-Type Signal, Asn230” value was 60.0 ± 26.5%. Moreover, the “% of Wild-Type Signal, Asp246” value in the assay with Gβ1γ2 Asp246Ser came out at 6.3 ± 13.9%. In the assay with Gβ1γ2 His311Ala, the “% of Wild-Type Signal, His311” value is on record as 6.1 ± 3.4%. Besides, in the assay with Gβ1γ2 Arg314Ala, the “% of Wild-Type Signal, Arg314” value turned out to be 3.9 ± 7.9%. Also, the “% of Wild-Type Signal, Trp332” value in the assay with Gβ1γ2 Trp332Ala is recorded as 1.6 ± 2.4%.
As to WCPPKLEQWYDGCA [C2], the “% of Wild-Type Signal, Lys57” value with Gβ1γ2 Lys57Ala is given as −1.2 ± 4.5%. Also, in the assay with Gβ1γ2 Tyr59Ala, the “% of Wild-Type Signal, Tyr59” value was −1.7 ± 4.8%. In the assay with Gβ1γ2 Trp99Ala, the “% of Wild-Type Signal, Trp99” value is recorded as −1.0 ± 5.1%. The “% of Wild-Type Signal, Met101” value in the assay with Gβ1γ2 Met101Ala amounted to 157.1 ± 51.5%. Moreover, in the assay with Gβ1γ2 Leu117Ala, the “% of Wild-Type Signal, Leu117” value was found to be 1.5 ± 5.5%. Moreover, the “% of Wild-Type Signal, Tyr145” value with Gβ1γ2 Tyr145Ala is reported as 4.5 ± 8.1%. Besides, the “% of Wild-Type Signal, Asp186” value in the assay with Gβ1γ2 Asp186Ala is reported as 267.2 ± 40.6%. Further, the “% of Wild-Type Signal, Met188” value with Gβ1γ2 Met188Ala is −0.7 ± 2.5%. Besides, in the assay with Gβ1γ2 Asn230Ala, the “% of Wild-Type Signal, Asn230” value was 0.0 ± 3.3%. Moreover, the “% of Wild-Type Signal, Asp246” value with Gβ1γ2 Asp246Ser turned out to be 5.9 ± 5.7%. For the same sequence, the “% of Wild-Type Signal, His311” value with Gβ1γ2 His311Ala is recorded as 11.7 ± 8.0%. For the same sequence, in the assay with Gβ1γ2 Arg314Ala, the “% of Wild-Type Signal, Arg314” value is 1.3 ± 3.1%. The “% of Wild-Type Signal, Trp332” value in the assay with Gβ1γ2 Trp332Ala is recorded as 4.7 ± 6.2%.

(Values after patent US8748480B2, “Methods for treating opioid tolerance” (priority 2005, dated 2014).)
